Drawing on PMC7707817, this text covers stoichiometry N and percent of ClpA crosslinked to ClpP for two substances.

Test [1] addresses ClpP+C (E. coli ClpP C91V, C113A with a cysteine appended after Asn193) (E. coli). Briefly: SEC; Superdex-200 of the quenched cross-linking reaction; 50 mM HEPES-KOH pH 7.5, 300 mM NaCl, 20 mM MgCl2, 10% glycerol, 2 mM TCEP; peak 2 = uncrosslinked ClpP+C.
The target is the same in test [2]. Briefly: cross-linking; E613CClpA‡ (4 µM) and ClpP+C (9.6 µM) mixed; 50 mM HEPES-KOH pH 7, 300 mM NaCl, 20 mM MgCl2, 10% glycerol, 5 mM EDTA; 5 mM ATPγS, 200 µM bismaleimidoethane (BMOE), room temperature, 45 min; quenched with 50 mM DTT; peak-1 pool of Superdex-200 SEC read by reducing SDS-PAGE (Coomassie).

As a reminder, the stoichiometry N is a count of units in the complex or per binding partner.

As to “ClpP+C (E. coli ClpP C91V, C113A with a cysteine appended after Asn193) (enzyme)”, the stoichiometry N in test [1] is 14.
Take “E613C ClpA‡ (E. coli ClpAΔC9 with C47S, C203S, C243S and E613C) (from UniProt P0ABH9 1-749) (enzyme)”: the percent of ClpA crosslinked to ClpP in test [2] came out at 90%.
